Paper PMC3673938, “Two Distinct Calmodulin Binding Sites in the Third Intracellular Loop and Carboxyl Tail of Angiotensin II (AT1A) Receptor” (PLoS ONE, 2013)

How the values were obtained:
G protein βγ subunits = experiment: GST-fusion protein pull-down of G protein βγ subunits, with or without CaM; format: binding, bovine; settings: 2 pmol GST-fusion protein, 2 pmol Gβγ, CaM pre-incubated 30 minutes, 20 mM Tris-HCl, 70 mM NaCl, 0.1 mM CaCl2, pH 7.5; 4 or 5 experiments
Experimental: (§1) GST-fusion proteins were expressed in E. coli BL21 strain cells, and purified by affinity chromatography using immobilized glutathione sepharose 4B beads. Proteins were eluted by reduced glutathione in 50 mM Tris-HCl buffer (pH 8.0), and then concentrated with Centricon filters with 3 kDa MW cut-off. The eluted proteins were either used immediately or stored at −80°C for future use. For GST-fusion protein pull-down assays, fusion proteins were incubated with either cell lysates or purified protein(s) at 4°C for 3 hours, following which glutathione-sepharose 4B beads were added and incubation continued at 4°C for 1 hour. The beads were then recovered by brief centrifugation, followed by 4 washes with the corresponding incubation buffer. The fusion proteins and the proteins to which they were bound were then separated by SDS-PAGE, and identified by staining with Coomassie blue or by immunoblot.
Figure 7 Effect of CaM on G protein βγ subunit interaction with wild ATi3 or ATct. A. Interaction of G protein βγ subunits and ATi3 or ATct. 50 pmol of GST-ATi3(213–242) or GST-ATct(297–359) were incubated with different amounts of G protein Gβγ subunits in a buffer containing 20 mM Tris-HCl and 70 mM NaCl (pH 7.5). Interactions were assessed by GST-fusion protein pull-down assay, and blots were probed with a specific antibody against Gβ subunits (upper panel). 1 pmol of Gβγ subunit was interacted with different amounts of GST-ATi3(213–242) and GST-ATct(297–359). Interaction was assessed by immunoblot against Gβ subunits (lower panel). B. CaM inhibits the interaction between G protein Gβγ subunits and ATi3 or ATct. 2 pmol of GST-ATi3(213–242) or GST-ATct(297–359) were incubated with different concentrations of pure bovine brain CaM for 30 minutes in a buffer (20 mM Tris-HCl and 70 mM NaCl with 0.1 mM CaCl2, pH 7.5) following which 2 pmol of Gβγ subunits were added and incubated for 1 hour. GST-fusion proteins and their interacting proteins were pulled down by gluthathione-sepharose 4B beads, and subjected to immunoblot. Blots were probed with a specific antibody against Gβ subunits. The summary graph represents means ± S.E. from four independent experiments. C. Effects of CaM on the interactions between G protein βγ subunits and mutated ATi3 and ATct. The method is same as the described in the Figure 7B, except that we used mutated GST-fusion proteins, GST-ATi3(213–242)W219A, ATct(297–359)F309A, and ATct(297–359)F313A. The summary graph represents mean ± S.E. from 4 or 5 independent experiments.

[1] = tested on: purified bovine brain CaM; experiment: GST-fusion protein pull-down with purified bovine brain CaM; format: binding; settings: 50 pmol GST-fusion protein, 50 pmol purified bovine CaM, 100 mM Tris-HCl pH 7.5; Ca2+ dependent (0.1 mM CaCl2 vs 1 mM EGTA); repeated five times
Experimental: as §1
(§2) Figure 1 Interactions of the i3 loop and carboxyl tail of the AT1A receptor with CaM. A, Construction of GST-fusion proteins. Upper panel illustrates a schematic structure of the AT1A receptor and constructs of GST-fusion proteins of the i3 loop and carboxyl tail of the receptor. The numbers represent positions of amino acids in the receptor. […]

CaM in rat brain lysates = experiment: GST-fusion protein pull-down from rat brain lysates; format: binding; settings: 50 pmol GST-fusion protein, 500 µg rat brain lysates, 20 mM Tris-HCl, 70 mM NaCl, pH 7.5; Ca2+ dependent; repeated five times
Experimental: as §1, §2

Gβγ binding to GST-fusion protein in the presence of 2 pmol of CaM (G protein βγ subunits) [%]	Gβγ binding to GST-fusion protein in the presence of 10 pmol of CaM (G protein βγ subunits) [%]	Molecule	interaction with purified CaM (pull-down, in words) [1]	association with CaM from rat brain lysates (pull-down, in words) (CaM in rat brain lysates)
73	34	GST-ATct(297–359): GST fused to the carboxyl terminal tail (amino acids 297 to 359) of the AT1A receptor (protein, UniProt P25095 297-359, looked up, fragment, carboxyl tail GST fusion, GST fused to the carboxyl terminal tail (amino acids 297 to 359) of the AT1A receptor) LNPLFYGFLGKKFKKYFLQLLKYIPPKAKSHSSLSTKMSTLSYRPSDNMSSSAKKPASCFEVE	associated	associated
99	83	GSTATct(F313A): F313A mutant of GST-ATct(297–359) (protein, UniProt P30556 297-359, looked up, fragment F313A, GST fusion) LNPLFYGFLGKKFKRYALQLLKYIPPKAKSHSNLSTKMSTLSYRPSDNVSSSTKKPAPCFEVE		
